This passage reports Kd results from patent publication US20210388110A1 (published 2021).

Numbering of substitutions follows the chain as printed.

The target of experiment [1] is T1, soluble human CD3ε chain (human, UniProt P07766 23-126, limits assumed).
T1 construct: the text says soluble human CD3ε chain; also called human CD3 epsilon chain
Kind of experiment: SPR (Biacore). For orientation: In SPR one partner is held on a chip, and binding of the other changes the refractive index at the surface.
T1 sequence (P07766 23-126 limits assumed): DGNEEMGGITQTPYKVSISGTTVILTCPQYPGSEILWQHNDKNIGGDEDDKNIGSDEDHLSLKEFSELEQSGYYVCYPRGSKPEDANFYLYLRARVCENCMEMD

Experiment [2] has as its target T2, soluble human CD3ε chain (human, UniProt P07766 23-126, limits assumed).
T2 construct: also called human CD3 epsilon chain
Kind of experiment: SPR (Biacore), soluble human CD3ε chain.
T2 sequence (P07766 23-126 limits assumed): as above

B1: TR01H100-E22Hh/none-Hi-Kn010G3/L0011-k0 (antibody, human IgG1, kappa, L234A L235A, N297A)
heavy: QVQLVESGGGLVQPGRSLRLSCAASGFTFSNAWMHWVRQAPGKGLEWVAQIKDKSQNYASYYAESVKGRFTISRDDSKNSLYLQMNSLKTEDTAVYYCRYVHYAAGYGVDAWGQGTTVTVSSASTKGPSVFPLAPSSKSTSGGTAALGCLVKDYFPEPVTVSWNSGALTSGVHTFPAVLQSSGLYSLSSVVTVPSSSLGTQTYICNVNHKPSNTKVDKKVEPKSCDKTHTCPPCPAPEAAGGPSVFLFPPKPKDTLMISRTPEVTCVVVDVSHEDPEVKFNWYVDGVEVHNAKTKPREEQYASTYRVVSVLTVLHQDWLNGKEYKCKVSNKALPAPIEKTISKAKGQPREPQVYTLPPSRCELTKNQVSLSCAVKGFYPSDIAVEWESNGQPENNYKTTPPVLDSDGSFFLVSKLTVDKSRWQQGNVFSCSVMHEALHNHYTQKSLSLSPDYKDDDDK
chain: EPKSSDKTHTCPPCPAPELLGGPSVFLFPPKPKDTLMISRTPEVTCVVVDVSHEDPEVKFNWYVDGVEVHNAKTKPREEQYNSTYRVVSVLTVLHQDWLNGKEYKCKVSNKALPAPIEKTISKAKGQPREPQVCTLPPSRDELTKNQVSLWCLVKGFYPSDIAVEWESNGQPENNYKTTPPVLDSDGSFFLYSKLTVDKSRWQQGNVFSCSVMHEALHNRYTQKSLSLSP
light: DIVMTQSPLSLPVTPGEPASISCRSSQPLVHSNRNTYLHWYQQKPGQAPRLLIYKVSNRFSGVPDRFSGSGSGTDFTLKISRVEAEDVGVYYCGQGTQVPYTFGQGTKLEIKRTVAAPSVFIFPPSDEQLKSGTASVVCLLNNFYPREAKVQWKVDNALQSGNSQESVTEQDSKDSTYSLSSTLTLSKADYEKHKVYACEVTHQGLSSPVTKSFNRGEC
notes: single-arm
A word on the Kd: it is the concentration at which binding is half-saturated. For the molecule B1, binding with soluble human CD3ε chain [1] was put at a Kd of 62.5 nM.

B2: TR01H080-E22Hh/none-Hi-Kn010G3/L0000-k0 (antibody, human IgG1, kappa, L234A L235A, N297A)
heavy: QVQLVESGGGLVQPGRSLRLSCAASGFTFSNAWMHWVRQAPGKGLEWVAQIKDKSNNYATYYAESVKGRFTISRADSKNSIYLQMNSLKTEDTAVYYCRYVHYAAVRRRLSSYGVDIWGQGTTVTVSSASTKGPSVFPLAPSSKSTSGGTAALGCLVKDYFPEPVTVSWNSGALTSGVHTFPAVLQSSGLYSLSSVVTVPSSSLGTQTYICNVNHKPSNTKVDKKVEPKSCDKTHTCPPCPAPEAAGGPSVFLFPPKPKDTLMISRTPEVTCVVVDVSHEDPEVKFNWYVDGVEVHNAKTKPREEQYASTYRVVSVLTVLHQDWLNGKEYKCKVSNKALPAPIEKTISKAKGQPREPQVYTLPPSRCELTKNQVSLSCAVKGFYPSDIAVEWESNGQPENNYKTTPPVLDSDGSFFLVSKLTVDKSRWQQGNVFSCSVMHEALHNHYTQKSLSLSPDYKDDDDK
chain: B1 chain
light: B1 light with P28S
notes: single-arm
The molecule B2 registered a Kd in the experiment with soluble human CD3ε chain [1] of 3.25 nM.

B3: TR01H067-E22Hh/none-Hi-Kn010G3/L0000-k0 (antibody, human IgG1, kappa, L234A L235A, N297A)
heavy: B1 heavy with S60T, G106S
chain: B1 chain
light: B1 light with P28S
notes: one-arm antibody (single Fab) with Fab-less hinge-Fc chain Hi-Kn010G3
For B3, the Kd in the experiment with soluble human CD3ε chain [2] is 71.5 nM.

B4: TR01H040-E22Hh/none-Hi-Kn010G3/L0000vk1-k0 (antibody, human IgG1, kappa, L234A L235A, N297A)
heavy: B1 heavy with S60T, D75A, L81I, A104S, G106S
chain: B1 chain
light: DIQMTQSPSSLSASVGDRVTITCRSSQSLVHSNRNTYLHWYQQKPGKAPKLLIYKVSNRFSGVPSRFSGSGSGTDFTFTISSLQPEDIATYYCGQGTQVPYTFGQGTKVEIKRTVAAPSVFIFPPSDEQLKSGTASVVCLLNNFYPREAKVQWKVDNALQSGNSQESVTEQDSKDSTYSLSSTLTLSKADYEKHKVYACEVTHQGLSSPVTKSFNRGEC
notes: single-arm
Take B4: in the experiment with soluble human CD3ε chain [1], the Kd was 46.9 nM.

B5: CE115HA179-G1dh//-Hi-Kn010G3/L0000-k0 (antibody, human IgG1, kappa)
heavy: not shown
chain: B1 chain
light: B1 light with P28S
notes: single-arm
In the experiment with soluble human CD3ε chain [1], B5 showed a Kd of 8.35 nM.

B6: TR01H077-E22Hh/none-Hi-Kn010G3/L0200-k0 (antibody, human IgG1, kappa, L234A L235A, N297A)
heavy: QVQLVESGGGLVQPGRSLRLSCAASGFTFSNAWMHWVRQAPGKGLEWVAQIKDKSNNYATYYAESVKGRFTISRADSKNSIYLQMNSLKTEDTAVYYCRYVHYAAAEMVRDDIWGQGTTVTVSSASTKGPSVFPLAPSSKSTSGGTAALGCLVKDYFPEPVTVSWNSGALTSGVHTFPAVLQSSGLYSLSSVVTVPSSSLGTQTYICNVNHKPSNTKVDKKVEPKSCDKTHTCPPCPAPEAAGGPSVFLFPPKPKDTLMISRTPEVTCVVVDVSHEDPEVKFNWYVDGVEVHNAKTKPREEQYASTYRVVSVLTVLHQDWLNGKEYKCKVSNKALPAPIEKTISKAKGQPREPQVYTLPPSRCELTKNQVSLSCAVKGFYPSDIAVEWESNGQPENNYKTTPPVLDSDGSFFLVSKLTVDKSRWQQGNVFSCSVMHEALHNHYTQKSLSLSPDYKDDDDK
chain: B1 chain
light: B1 light with S25P, P28S, L29P
notes: single-arm
B6 came in with a Kd with soluble human CD3ε chain [1] of 6.12 nM.

B7: rCE115H-G1dh//-Hi-Kn010G3/L0000-k0 (antibody, human IgG1, kappa)
heavy: not shown
chain: B1 chain
light: B1 light with P28S
notes: single-arm
For the molecule B7, the Kd in the experiment with soluble human CD3ε chain [1] stood at 57.6 nM.

B8: CE115HA124-E22Hh//-Hi-Kn010G3/L0000-k0 (antibody, human IgG1, kappa, L234A L235A, N297A)
heavy: B1 heavy with L11V, D53A, K54L, Q56N, S60T, A104G, G106Y
chain: B1 chain
light: B1 light with P28S
notes: one-arm antibody (single Fab) with Fab-less hinge-Fc chain Hi-Kn010G3; label '//-Hi-Kn010G3' read as none-Hi-Kn010G3
B8: the Kd in the experiment with soluble human CD3ε chain [2] came to 143 nM.

B9: TR01H015-E22Hh/none-Hi-Kn010G3/TR01L004-k0 (antibody, human IgG1, kappa, L234A L235A, N297A)
heavy: B1 heavy with D53G, Q56N, S60T, D75A, L81I, A104S, G106S, A111I
chain: B1 chain
light: B1 light with R24Q, S25A, Q27E, P28S, L109V, K112E
notes: as for B3
In the experiment with soluble human CD3ε chain [2], B9 registered a Kd of 73.4 nM.

B10: CE115HA178-G1dh//-Hi-Kn010G3/L0000-k0 (antibody, human IgG1, kappa)
heavy: not shown
chain: B1 chain
light: B1 light with P28S
notes: single-arm
The molecule B10 displayed a Kd with soluble human CD3ε chain [1] of 10.9 nM.

B11: TR01H079-E22Hh/none-Hi-Kn010G3/L0000-k0 (antibody, human IgG1, kappa, L234A L235A, N297A)
heavy: B2 heavy with V106A, R107E, R108M, R109V, L110R, S111D
chain: B1 chain
light: B1 light with P28S
notes: single-arm
As to B11, the Kd in the experiment with soluble human CD3ε chain [1] worked out at 50.5 nM.

B12: TR01H008-E22Hh/none-Hi-Kn010G3/L0000-k0 (antibody, human IgG1, kappa, L234A L235A, N297A)
heavy: B1 heavy with D53G, Q56N, S60T, D75A, L81I, A104G, G106Y, A111I
chain: B1 chain
light: B1 light with P28S
notes: as for B3
In the experiment with soluble human CD3ε chain [2], B12 yielded a Kd of 42.2 nM.

B13: TR01H015-E22Hh/none-Hi-Kn010G3/TR01L002-k0 (antibody, human IgG1, kappa, L234A L235A, N297A)
heavy: B1 heavy with D53G, Q56N, S60T, D75A, L81I, A104S, G106S, A111I
chain: B1 chain
light: B1 light with P28S, Q42L, A48S, R50Q
notes: as for B3
As to B13, binding in the experiment with soluble human CD3ε chain [2] was characterised by a dissociation constant (Kd) of 71.4 nM.

B14: TR01H021-E22Hh/none-Hi-Kn010G3/L0000-k0 (antibody, human IgG1, kappa, L234A L235A, N297A)
heavy: B1 heavy with D53G, Q56N, S60T, D75A, L81I, A104S, G106S
chain: B1 chain
light: B1 light with P28S
notes: as for B3
On to B14, for which, in the experiment with soluble human CD3ε chain [2], binding was characterised by a dissociation constant (Kd) of 80.5 nM.

B15: CE115HA180-G1dh//-Hi-Kn010G3/L0000-k0 (antibody, human IgG1, kappa)
heavy: not shown
chain: B1 chain
light: B1 light with P28S
notes: single-arm
Take B15: the Kd in the experiment with soluble human CD3ε chain [1] was 16.8 nM.

B16: CE115HA177-G1dh//-Hi-Kn010G3/L0000-k0 (antibody, human IgG1, kappa)
heavy: not shown
chain: B1 chain
light: B1 light with P28S
notes: single-arm
In turn, B16 showed a Kd with soluble human CD3ε chain [1] of 35.5 nM.

B17: TR01H010-E22Hh/none-Hi-Kn010G3/L0000-k0 (antibody, human IgG1, kappa, L234A L235A, N297A)
heavy: B1 heavy with D53A, Q56N, S60T, D75A, L81I, A104S, G106Y, A111I
chain: B1 chain
light: B1 light with P28S
notes: as for B3
With B17, the Kd in the experiment with soluble human CD3ε chain [2] worked out at 37.3 nM.

B18: TR01H009-E22Hh/none-Hi-Kn010G3/L0000-k0 (antibody, human IgG1, kappa, L234A L235A, N297A)
heavy: B1 heavy with D53A, Q56N, S60T, E64P, D75A, L81I, A104G, G106Y, A111I
chain: B1 chain
light: B1 light with P28S
notes: as for B3
Consider B18, for which the Kd in the experiment with soluble human CD3ε chain [2] turned out to be 31.5 nM.

B19: TR01H004-E22Hh//-Hi-Kn010G3/L0000-k0 (antibody, human IgG1, kappa, L234A L235A, N297A)
heavy: B1 heavy with L11V, D53A, Q56N, S60T, Y100R, A104Y, A105Y, G106Y
chain: B1 chain
light: B1 light with P28S
notes: as for B8
Turning to B19, the Kd with soluble human CD3ε chain [2] amounted to 135 nM.

B20: hCE115HA-E22Hh//-Hi-Kn010G3/L0000-k0 (antibody, human IgG1, kappa, L234A L235A, N297A)
heavy: B1 heavy with L11V, D53A, Q56N, S60T, A104G, G106Y
chain: B1 chain
light: B1 light with P28S
notes: single-arm
Turning to B20, binding with soluble human CD3ε chain [1] was characterised by a dissociation constant (Kd) of 143 nM.

B21: hCE115HA-G1dh//-Hi-Kn010G3/L0000-k0 (antibody, human IgG1, kappa)
heavy: not shown
chain: B1 chain
light: B1 light with P28S
notes: single-arm
Turning to B21, the Kd in the experiment with soluble human CD3ε chain [1] worked out at 65 nM.

B22: TR01H011-E22Hh/none-Hi-Kn010G3/L0000-k0 (antibody, human IgG1, kappa, L234A L235A, N297A)
heavy: B1 heavy with D53A, Q56N, S60T, D75A, L81I, A104G, G106S, A111I
chain: B1 chain
light: B1 light with P28S
notes: as for B3
Consider B22, for which the affinity with soluble human CD3ε chain [2], expressed as Kd, was 37.1 nM.
